Experiment [1] addresses human IgE bound to FcεRI (IgE-loaded FcεRI α-chain on CHO 3D10 cells) (human) (UniProt P01854). Nature of the experiment: FACS on IgE-loaded CHO 3D10 cells (FIG. 4).
Experiment [2] shares this target. Description: FACS on IgE-loaded CHO 3D10 cells (FIG. 4); isotype control.
Experiment [3] has the same target. Nature of the experiment: cell-based or functional assay.
For experiment [4], the target named is membrane IgE on U266B1 cells (human) (UniProt P01854). Nature of the experiment: FACS on U266B1 cells (membrane IgE+).
Sequence of membrane IgE on U266B1 cells (human) (P01854 whole entry, one chain of several): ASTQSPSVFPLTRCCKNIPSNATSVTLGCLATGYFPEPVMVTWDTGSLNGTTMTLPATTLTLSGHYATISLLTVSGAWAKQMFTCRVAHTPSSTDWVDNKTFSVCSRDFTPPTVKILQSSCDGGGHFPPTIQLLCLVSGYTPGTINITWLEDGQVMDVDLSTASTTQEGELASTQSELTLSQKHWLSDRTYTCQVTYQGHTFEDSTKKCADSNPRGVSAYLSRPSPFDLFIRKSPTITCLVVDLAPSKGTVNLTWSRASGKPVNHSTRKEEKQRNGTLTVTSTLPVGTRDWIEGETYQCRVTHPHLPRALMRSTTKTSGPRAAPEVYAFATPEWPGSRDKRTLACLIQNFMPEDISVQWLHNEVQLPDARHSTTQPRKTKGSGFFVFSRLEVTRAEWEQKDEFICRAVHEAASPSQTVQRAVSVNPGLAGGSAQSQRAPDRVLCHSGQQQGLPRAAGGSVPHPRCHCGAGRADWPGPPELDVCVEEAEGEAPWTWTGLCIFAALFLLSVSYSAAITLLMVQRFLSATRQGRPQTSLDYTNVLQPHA
In experiment [5] the target is human IgE (affinity purified from U266B1 myeloma culture supernatant) (human) (UniProt P01854). Description: equilibrium binding of 125I-IgE, Scatchard analysis.
Sequence of human IgE (affinity purified from U266B1 myeloma culture supernatant) (human) (P01854 whole entry, form in doubt, one chain of several): as the sequence (P01854 whole entry, one chain of several) above
The target is the same in experiment [6]. Nature of the experiment: soluble receptor assay: inhibition of biotin-IgE binding to plate-coated FcεRI α-chain IgG chimera.
The target is the same in experiment [7]. Described as above. This is another data set of the same source.

The results in this text go back to US6723833.

As usually defined, the EC50 is the concentration needed to bring the measured effect to its halfway point. A low value points to a more potent agent. A word on the Kd: it is the free concentration of one partner at which half of the binding sites on the other are occupied at equilibrium, for simple one-to-one binding. The low end stands for tighter binding, the high end for weaker binding. One may read the IC50 as the concentration needed to halve the response being measured. Read a low IC50 as higher potency.

Like-named read-outs stand apart in the source and are kept apart here.

Sequence of human IgE bound to FcεRI (IgE-loaded FcεRI α-chain on CHO 3D10 cells) (human) (P01854 whole entry, chain 1 of 2): as the sequence (P01854 whole entry, one chain of several) above
Sequence of human IgE bound to FcεRI (IgE-loaded FcεRI α-chain on CHO 3D10 cells) (human) (P12319 26-257, chain 2 of 2, further chain): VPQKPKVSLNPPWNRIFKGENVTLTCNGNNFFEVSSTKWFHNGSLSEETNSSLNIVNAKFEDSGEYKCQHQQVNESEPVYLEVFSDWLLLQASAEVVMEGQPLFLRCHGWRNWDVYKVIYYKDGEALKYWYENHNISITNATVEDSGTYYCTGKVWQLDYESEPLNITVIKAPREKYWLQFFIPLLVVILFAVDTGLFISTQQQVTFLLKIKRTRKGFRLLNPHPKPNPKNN

MOPC21 (antibody) displayed a mean channel fluorescence at 0.1 µg/ml (mean channel fluorescence) in experiment [1] of 7.3. Further, in experiment [2], the nonspecific background binding was 10%.

B1: MaE11 (antibody, mouse IgG1, V domains shown)
VH: DVQLQESGPGLVKPSQSLSLACSVTGYSITSGYSWNWIRQFPGNKLEWMGSITYDGSSNYNPSLKNRISVTRDTSQNQFFLKLNSATAEDTATYYCARGSHYFGHWHFAVWGAGTTVTVSS
VL: DIQLTQSPASLAVSLGQRATISCKASQSVDYDGDSYMNWYQQKPGQPPILLIYAASYLGSEIPARFSGSGSGTDFTLNIHPVEEEDAATFYCQQSHEDPYTFGAGTKLEIK
Consider B1, for which, in experiment [3], the PBL histamine release (EC50), IgE-loaded peripheral blood basophils was above 100 mg/L. The molecule also displayed an EC50 in experiment [4] of 0.15 mg/L. The molecule also displayed a mean channel fluorescence at 0.1 µg/ml (mean channel fluorescence) in experiment [1] of 6.4. Besides, the Kd in experiment [5] came to 0.03 µM. For the same molecule, in experiment [6], the IC50 was 0.179 mg/L, the ratio F(ab)-X/F(ab)-2 was found to be 0.03 and the ratio F(ab)-X/MaE11 was found to be 1. Also, in experiment [7], the IC50 stood at 0.449 mg/L, the ratio Variant X/IgG1-2 was found to be 0.06 and the ratio Variant X/MaE11 stood at 1.
